Source: publication PMC7006816, “Human β-Defensin 2 Mediated Immune Modulation as Treatment for Experimental Colitis” (Frontiers in Immunology, 2020)
Where no end group is shown, it is not given here.

How the values were obtained:
NMRI mice = assay: In vivo toxicity test, single s.c. dose; parameters: species or system mouse; settings: for Clinical signs at the end of the day of dosing / Clinical signs on the day of dosing: Clinical signs / Clinical signs on the day of dosing: No clinical signs / Clinical signs on the day of dosing: Pruritus / Necropsy: Macroscopic findings: female NMRI mice; for Clinical signs at the end of the day of dosing / Clinical signs on the day of dosing: Clinical signs / Clinical signs on the day of dosing: No clinical signs / Clinical signs on the day of dosing: Pruritus: animals/group; for Necropsy: Macroscopic findings: necropsy day 4, animals/group
Procedure: In vivo toxicity of hBD2 was assessed in 6–8 weeks old female NMRI mice (Taconic Europe). All animal studies were performed according to Danish legislations for laboratory animals and approved by Novozymes science ethics committee. hBD2 was given subcutaneously (s.c.) in the intrascapular region using a 25G needle and a 1 ml syringe. […] Clinical signs were recorded on day 0 and monitored until experimental endpoints. Body weights were recorded as a minimum on day 0, day 2, and day 4 prior to euthanasia. Necropsy was performed after euthanasia and kidneys, spleens and livers were weighed.

human Mo-DC's = assay: Cytokine production by human Mo-DC's; format: cell-based; settings: hBD2 100 μg/ml or 10 μg/ml, 24 h, ELISA, n = 3
Procedure: Peripheral blood was drawn from healthy donors and diluted one to one in PBS. The mixture was stacked in a falcon tube on Biocoll separation solution (Biochrome) with a ratio of three parts blood PBS mixture to two parts Biocoll. For a density gradient centrifugation the falcon tubes were centrifuged at 2,000 rpm for 30 min at RT. The PBMC's were removed and washed twice with PBS. 1.5 × 10^6 cells were seeded per well in a tissue culture-treated 6-well plate in RPMI-1640 medium (Merck) supplemented with 10% fetal calf serum (FCS; Sigma-Aldrich), 2 mM L-glutamine (Biochrome), 100 U/ml penicillin/streptomycin (Gibco), 50 μM 2-mercaptoethanol (Fluka), 1 mM sodium pyruvate (Biochrome), and 1x non-essential amino acids (Biochrome) and incubated for 1 h at 37°C and 5% CO2 for monocyte adherence. Then the cells were washed with media and PBS to remove the non-adherent cells and were cultivated for 6 days with media additional supplemented with 50 ng IL-4 and 100 ng GM-CSF (Miltenyi). […]
2 × 10^5 murine BM-DC's or human Mo-DC's were seeded in 96-well round bottom plates. […] 24 h later supernatants were collected and TNF-α [Biolegend (BM-DC's); R&D (Mo-DC's)] was analyzed according to the manufacturer's instructions. IL-10, IL-12, and IL-1β (LEGENDplex Biolegend) was as well-analyzed according to the manufacturer's instructions.

murine BM-DC's = assay: Flow cytometry of BM-DCs (p-NF-κB, p-CREB, MHCII, CD86); format: cell-based, mouse; settings: LPS + hBD2 100 μg/ml, flow cytometry, n = 6
Procedure: BM-DC's were generated using granulocyte-macrophage colony-stimulating factor (GM-CSF) and RPMI-1640 medium (Merck) supplemented with 10% fetal calf serum (FBS; Life Technologies), 2 mM glutamine (Thermo Fisher), 100 U/ml penicillin/streptomycin (Gibco), 50 μM 2-mercaptoethanol (Roth), 1 mM sodium pyruvate (Biochrome), and 1x non-essential amino acids (Biochrome) as previously described ([28]). Shortly, 2 × 10^6 bone marrow cells flushed from the tibias and femurs of C57BL/6 mice were seeded in dishes containing 200 U/ml GM-CSF. After 3 days extra medium containing GM-CSF was added to the cells and on day 6 half of the medium was replaced by fresh […] containing GM-CSF. After 7 or 8 days slightly attached cells were harvested. Female C57BL/6JolaHsd mice were purchased from Janvier (St. Berthevin Cedex, France). Animal experiments were performed in strict accordance with the German regulations of the Society for Laboratory Animal Science (GV-SOLAS) and the European Health Law of the Federation of Laboratory Animal Science Associations (FELASA). The protocol was approved by the Regierungspräsidium Tübingen (Anzeige 09.01.2014).
2 × 10^5 murine BM-DC's were seeded in 96-well round bottom plates and treated as described above. Cells were removed from the plate using Accutase (Sigma-Aldrich) and stained for 20 min at room temperature with Zombie Aqua (Biolegend) to exclude dead cells and extracellular antibodies against CD11c-APC (N418) (Miltenyi), MHCII-FITC (M5/114.15.2) (Miltenyi) and CD86-BV421 (GL-1) (Biolegend). For p-CREB staining cells were fixed and permeabilized with Foxp3 Staining Buffer Set (eBioscience) and stained with primary antibody phosphor-CREB mAb (Ser133; clone 87G3) (Cell Signaling) for 30 min in the dark at room temperature followed by secondary goat anti-rabbit IgG-DyLight™649 (Jackson ImmunoResearch) for 15 min at 4°C. To detect intracellular p-NF-κB BM-DCs were fixed with 2% paraformaldehyde (VWR) in PBS, permeabilized with 90% freezing methanol (Applichem) and stained with the primary antibodies to phosphor-NF-κB p65 (93H1) (Cell Signaling) for 60 min in the dark at room temperature followed by goat anti-rabbit IgG-PE-Cy7 (Santa Cruz Biotechnology) for 15 min at 4°C. PBS with 0,5% bovine serum albumin (Biomol) was used for all incubations and washing steps. At least 50,000 cells were acquired using a Canto-II flow cytometer (BD […]) with DIVA software (BD Biosciences) and were further analyzed using FlowJo 10.5 software (Tree Star).

Substance: human β-defensin 2 (GIGDPVTCLKSGAICHPVFCPRRYKQIGTCGLPGTKCCKKP; not fully specified; ends and bridges not checked) [hBD2, Recombinant human β-defensin 2 expressed in E. coli as his-tagged thioredoxin fusion, cleaved and purified, natural tertiary structure]
- Clinical signs after systemic challenge (NMRI mice; 0.5 mg/kg s.c.): did not develop any clinical signs
- Clinical signs at the end of the day of dosing (NMRI mice; 0.5 mg/kg s.c.): 0/3
- Clinical signs on the day of dosing: Clinical signs (NMRI mice; 0.5 mg/kg s.c.): 0/3
- Clinical signs on the day of dosing: No clinical signs (NMRI mice; 0.5 mg/kg s.c.): 3/3
- Clinical signs on the day of dosing: Pruritus (NMRI mice; 0.5 mg/kg s.c.): 0/3
- Necropsy: Macroscopic findings (NMRI mice; 0.5 mg/kg s.c.): 0/3
- Clinical signs at the end of the day of dosing (NMRI mice; 10 mg/kg s.c.): 0/3
- Clinical signs on the day of dosing: Clinical signs (NMRI mice; 10 mg/kg s.c.): 3/3
- Clinical signs on the day of dosing: No clinical signs (NMRI mice; 10 mg/kg s.c.): 0/3
- Clinical signs on the day of dosing: Pruritus (NMRI mice; 10 mg/kg s.c.): 3/3
- Necropsy: Macroscopic findings (NMRI mice; 10 mg/kg s.c.): 0/3
- Clinical signs at 60 min post dosing (NMRI mice; 40 mg/kg s.c.): still affected at 60 min post dosing
- Clinical signs at the end of the day of dosing (NMRI mice; 40 mg/kg s.c.): 0/3
- Clinical signs on the day of dosing: No clinical signs (NMRI mice; 40 mg/kg s.c.): 0/3
- Clinical signs on the day of dosing: Pruritus (NMRI mice; 40 mg/kg s.c.): 3/3
- Necropsy: Macroscopic findings (NMRI mice; 40 mg/kg s.c.): 0/3
- Body weight gain (NMRI mice; 0.5, 10, 40 mg/kg s.c., day 0-4): did not show any weight loss
- Adverse effects at necropsy (NMRI mice; 0.5, 10, 40 mg/kg s.c., necropsy day 4): no adverse effects were observed at necropsy
- Organ weight (liver, spleen, kidneys) (NMRI mice; 0.5, 10, 40 mg/kg s.c., necropsy day 4, hBD2 mice n = 3, control n = 2): nor did the organ weight differ significantly between the groups
- Clinical signs shortly after challenge (NMRI mice; 10 or 40 mg/kg s.c., 10–15 min after challenge, transient): mild clinical signs
- TNF-α production in LPS-challenged human mo-DCs (human Mo-DC's): dose-dependently curbed TNF-α production
- CREB phosphorylation (murine BM-DC's; 60 min): increase in CREB phosphorylation
- NF-κB phosphorylation (murine BM-DC's; 60 min): reduced NF-κB phosphorylation
- Maturation status (MHCII and CD86) (murine BM-DC's): reduced maturation status
